The numbers were not newly measured in publication PMC9884707, which cites them from elsewhere.

The target of the series is SHARPIN PH domain (20-121) (Homo sapiens) (UniProt Q9H0F6).

Consider “SHARPIN PH domain (20-121) (from UniProt Q9H0F6)”, for which the Kd is 124 µM.

A word on the Kd: it is a measure of binding affinity in units of concentration.
